Target: the cell surface receptor (of interleukin-2) on CTLL-2 cells
Assay: cell-based or functional assay

Substance | specific bioactivity (CTLL-2 cell/MTT colorimetry) [IU/mg]
recombinant human serum albumin/interleukin-2 fusion protein (rHSA/IL-2, code 9222) (ligand) | 2.46e+06
recombinant human interleukin-2/serum albumin fusion protein (rhIL-2/SA, code 9333) (ligand) | 2.39e+06
